Earlier results on three substances are cited in publication PMC11417995.

The target of data set [1] is ubiquitin (Homo sapiens) (UniProt P0CG47). In words: SPR.
Data set [2] has the same target. The data set can be described thus: NMR.
For data set [3] the target is unchanged. The data set can be described thus: TR-FRET. (In TR-FRET formats the signal depends on donor and acceptor labels being close together.)

pKd: −log10 of the molar value.

Sequence of UBE2K (P61086 2-200): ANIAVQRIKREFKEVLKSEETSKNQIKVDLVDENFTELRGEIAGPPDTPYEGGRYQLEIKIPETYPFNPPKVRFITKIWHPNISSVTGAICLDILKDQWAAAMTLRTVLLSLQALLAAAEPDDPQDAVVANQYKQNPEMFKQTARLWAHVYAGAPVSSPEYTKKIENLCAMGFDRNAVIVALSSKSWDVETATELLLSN
Sequence of UBE2K UBA (P61086 157-200): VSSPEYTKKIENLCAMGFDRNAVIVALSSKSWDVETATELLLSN
Sequence of CDC34A (P49427 whole entry): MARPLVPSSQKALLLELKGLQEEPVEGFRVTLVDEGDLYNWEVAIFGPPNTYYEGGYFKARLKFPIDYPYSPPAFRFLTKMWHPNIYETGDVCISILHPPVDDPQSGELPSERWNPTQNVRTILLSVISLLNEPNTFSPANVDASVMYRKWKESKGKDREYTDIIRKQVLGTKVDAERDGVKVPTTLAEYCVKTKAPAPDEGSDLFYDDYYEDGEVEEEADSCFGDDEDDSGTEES

Take UBE2K UBA (from UniProt P61086): in the data set with ubiquitin (Homo sapiens) [1], the pKd was 3.40. Take UBE2K (from UniProt P61086): the pKd in the data set with ubiquitin (Homo sapiens) [2] is 2.90. Regarding CDC34A (from UniProt P49427), in the data set with ubiquitin (Homo sapiens) [3], the pKd is 4.85.

A word on the pKd: it is the negative decadic logarithm of the Kd, by convention in mol/L.
